Test results published in patent publication US20160252527A1 (Takeda / Millennium, published 2016).

How the values were obtained:
[1] = target: cynomolgus monkey plasma kallikrein (pKal) (cynomolgus monkey); assay: cell-based or functional assay
[2] = target: human plasma kallikrein (pKal) (human, UniProt P03952 20-638); assay: cell-based or functional assay
human plasma kallikrein (pKal), sequence (P03952 20-638 limits assumed): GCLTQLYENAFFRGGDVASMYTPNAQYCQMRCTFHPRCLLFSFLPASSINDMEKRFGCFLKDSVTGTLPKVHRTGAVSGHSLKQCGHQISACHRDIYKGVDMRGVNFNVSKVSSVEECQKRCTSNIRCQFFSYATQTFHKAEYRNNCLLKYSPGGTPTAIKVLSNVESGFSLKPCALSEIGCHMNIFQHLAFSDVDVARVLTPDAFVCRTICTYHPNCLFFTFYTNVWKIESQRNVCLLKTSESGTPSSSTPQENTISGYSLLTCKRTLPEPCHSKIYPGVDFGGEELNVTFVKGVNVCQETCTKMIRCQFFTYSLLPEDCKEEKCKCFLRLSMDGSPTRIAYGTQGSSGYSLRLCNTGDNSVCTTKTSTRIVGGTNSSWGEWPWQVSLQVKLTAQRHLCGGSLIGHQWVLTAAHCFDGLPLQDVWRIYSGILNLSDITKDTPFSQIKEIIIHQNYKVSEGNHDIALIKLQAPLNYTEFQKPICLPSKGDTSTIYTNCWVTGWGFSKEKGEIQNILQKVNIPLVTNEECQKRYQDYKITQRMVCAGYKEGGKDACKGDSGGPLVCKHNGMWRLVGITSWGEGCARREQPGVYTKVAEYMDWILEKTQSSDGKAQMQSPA

cynomolgus monkey plasma kallikrein (pKal) (cynomolgus monkey), sequence (chain, as listed by the source): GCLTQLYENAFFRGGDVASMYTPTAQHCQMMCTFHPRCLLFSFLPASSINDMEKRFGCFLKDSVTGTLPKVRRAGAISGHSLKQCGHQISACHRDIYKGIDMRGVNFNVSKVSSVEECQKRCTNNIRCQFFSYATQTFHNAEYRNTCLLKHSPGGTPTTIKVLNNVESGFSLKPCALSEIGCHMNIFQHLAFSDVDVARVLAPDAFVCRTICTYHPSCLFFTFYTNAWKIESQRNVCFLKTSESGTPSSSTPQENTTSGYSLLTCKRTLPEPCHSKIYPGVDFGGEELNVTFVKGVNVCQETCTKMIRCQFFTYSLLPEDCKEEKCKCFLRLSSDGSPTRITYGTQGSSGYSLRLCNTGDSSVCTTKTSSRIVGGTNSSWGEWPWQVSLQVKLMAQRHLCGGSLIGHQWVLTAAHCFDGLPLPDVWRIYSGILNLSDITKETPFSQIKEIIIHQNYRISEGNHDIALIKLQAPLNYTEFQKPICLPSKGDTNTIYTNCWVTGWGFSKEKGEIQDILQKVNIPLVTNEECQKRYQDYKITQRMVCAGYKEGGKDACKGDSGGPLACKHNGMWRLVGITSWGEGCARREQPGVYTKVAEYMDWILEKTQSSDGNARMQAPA

percent inhibition of pKal activity (Pro-Phe-Arg-AMC substrate) after ex vivo FXIIa activation of plasma of a dosed monkey, drug level ~265 nM [1] [%]	% Reduction of one-chain HMWK (XIIa activated plasma, 9 nM DX2930; Protein Simple Western) [2] [%]	% Reduction of one-chain HMWK (XIIa activated plasma, 27 nM DX2930; Protein Simple Western) [2] [%]	% Reduction of one-chain HMWK (XIIa activated plasma, 80 nM DX2930; Protein Simple Western) [2] [%]	% Reduction of one-chain HMWK (XIIa activated plasma, 240 nM DX2930; Protein Simple Western) [2] [%]	% Reduction of one-chain HMWK (XIIa activated plasma, 480 nM DX2930; Protein Simple Western) [2] [%]	Area of the one-chain HMWK peak (XIIa activated plasma, 9 nM DX2930; Protein Simple Western) [2]	Area of the one-chain HMWK peak (XIIa activated plasma, 27 nM DX2930; Protein Simple Western) [2]	Area of the one-chain HMWK peak (XIIa activated plasma, 80 nM DX2930; Protein Simple Western) [2]	Area of the one-chain HMWK peak (XIIa activated plasma, 240 nM DX2930; Protein Simple Western) [2]	Area of the one-chain HMWK peak (XIIa activated plasma, 480 nM DX2930; Protein Simple Western) [2]	maximal inhibition of pKal activity (PFR-AMC substrate), plasma of dose group 3 (1.0 mg/kg DX-2930) [2] [%]	maximal inhibition of pKal activity (PFR-AMC substrate), plasma of dose group 4 (3.0 mg/kg DX-2930) [2] [%]	IC50 (read off the curve) [2] [nM]	Binder
80	92.1	90.4	79	63.9	54.9	842	1030	2230	3840	4800	19	36		DX-2930 (antibody, INN chains, looked up, V domains shown) VH: EVQLLESGGGLVQPGGSLRLSCAASGFTFSHYIMMWVRQAPGKGLEWVSGIYSSGGITVYADSVKGRFTISRDNSKNTLYLQMNSLRAEDTAVYYCAYRRIGVPRRDEFDIWGQGTMVTVSS VL: DIQMTQSPSTLSASVGDRVTITCRASQSISSWLAWYQQKPGKAPKLLIYKASTLESGVPSRFSGSGSGTEFTLTISSLQPDDFATYYCQQYNTYWTFGQGTKVEIK
													~400	alpha 2 macroglobulin (α2M) (other, UniProt P01023 24-1474, looked up) SVSGKPQYMVLVPSLLHTETTEKGCVLLSYLNETVTVSASLESVRGNRSLFTDLEAENDVLHCVAFAVPKSSSNEEVMFLTVQVKGPTQEFKKRTTVMVKNEDSLVFVQTDKSIYKPGQTVKFRVVSMDENFHPLNELIPLVYIQDPKGNRIAQWQSFQLEGGLKQFSFPLSSEPFQGSYKVVVQKKSGGRTEHPFTVEEFVLPKFEVQVTVPKIITILEEEMNVSVCGLYTYGKPVPGHVTVSICRKYSDASDCHGEDSQAFCEKFSGQLNSHGCFYQQVKTKVFQLKRKEYEMKLHTEAQIQEEGTVVELTGRQSSEITRTITKLSFVKVDSHFRQGIPFFGQVRLVDGKGVPIPNKVIFIRGNEANYYSNATTDEHGLVQFSINTTNVMGTSLTVRVNYKDRSPCYGYQWVSEEHEEAHHTAYLVFSPSKSFVHLEPMSHELPCGHTQTVQAHYILNGGTLLGLKKLSFYYLIMAKGGIVRTGTHGLLVKQEDMKGHFSISIPVKSDIAPVARLLIYAVLPTGDVIGDSAKYDVENCLANKVDLSFSPSQSLPASHAHLRVTAAPQSVCALRAVDQSVLLMKPDAELSASSVYNLLPEKDLTGFPGPLNDQDNEDCINRHNVYINGITYTPVSSTNEKDMYSFLEDMGLKAFTNSKIRKPKMCPQLQQYEMHGPEGLRVGFYESDVMGRGHARLVHVEEPHTETVRKYFPETWIWDLVVVNSAGVAEVGVTVPDTITEWKAGAFCLSEDAGLGISSTASLRAFQPFFVELTMPYSVIRGEAFTLKATVLNYLPKCIRVSVQLEASPAFLAVPVEKEQAPHCICANGRQTVSWAVTPKSLGNVNFTVSAEALESQELCGTEVPSVPEHGRKDTVIKPLLVEPEGLEKETTFNSLLCPSGGEVSEELSLKLPPNVVEESARASVSVLGDILGSAMQNTQNLLQMPYGCGEQNMVLFAPNIYVLDYLNETQQLTPEIKSKAIGYLNTGYQRQLNYKHYDGSYSTFGERYGRNQGNTWLTAFVLKTFAQARAYIFIDEAHITQALIWLSQRQKDNGCFRSSGSLLNNAIKGGVEDEVTLSAYITIALLEIPLTVTHPVVRNALFCLESAWKTAQEGDHGSHVYTKALLAYAFALAGNQDKRKEVLKSLNEEAVKKDNSVHWERPQKPKAPVGHFYEPQAPSAEVEMTSYVLLAYLTAQPAPTSEDLTSATNIVKWITKQQNAQGGFSSTQDTVVALHALSKYGAATFTRTGKAAQVTIQSSGTFSSKFQVDNNNRLLLQQVSLPELPGEYSMKVTGEGCVYLQTSLKYNILPEKEEFPFALGVQTLPQTCDEPKAHTSFQISLSVSYTGSRSASNMAIVDVKMVSGFIPLKPTVKMLERSNHVSRTEVSSNHVLIYLDKVSNQTLSLFFTVLQDVPVRDLKPAIVKVYDYYETDEFAIAEYNAPCSKDLGNA
